# Source: article PMC11261448
# B1: wrmScarlet::TDPT-1 [C. elegans] / TOP-2::3xFLAG [C. elegans] (parent)
# chain 1: MSNSDDEIQEIEAKRQKMSQEDSEVEIEILDEPEQGKLKNSSMSDEQKLHEFAIITATDEAFAQSILQDVDWDLKKALDVFYGSEAFAEARSAAVMGASSSMASSGAAVMTAEDLKGFEVSVMSWNIDGLDGRSLLTRMKAVAHIVKNVNPDILFLQEVVDRDLAPIDKLQSLYKIYYSNKGCQYYTAILVSKMFDVEKHDVIHFQNSGMYRTLQILEGSIGGLKVFLLNTHLESTREHRPQRCAQFGFCMDKVREIIAQNPGALVFFGGDLNLRDEEVSRVPDGVKDAWEAAGSDNKTKFTWDTFKNDNKQGFHGAKMRFDRLYWSGPLDKVKFTLEGRQRIRSCLCFPSDHWAINATFFA
# chain 2: MSDSDSEFSIEDSPKKKTAPKKEKASPKKKKDDANESMVMTEEDRNVFTSIDKKGGGSKQMAIEDIYQKKSQLEHILLRPDTYIGSVEHTEKTPMWVYNMEESKLEQRDISYVPGLYKIYDEILVNAADNKQRDPKMNTIKITINKEKNEISVYNNGKGIPVTQHKVEKVYVPELIFGTLLTSSNYNDDEKKVTGGRNGYGAKLCNIFSTKFTLETSSRDYKSAFKQTWIKNMTRDEEPKIVKSTDEDFTKITFSPDLAKFKMKELDDDICHLMARRAYDVAGSSKGVAVFLNGKRIPIKGFEDYVQMYTSQFNNEGEPLKIAYEQVGDRWQVALALSEKGFQQVSFVNSIATTKGGRHVDYVADQMVAKFIDSIKRKLTKTSMNIKPFQIKNHMWVFVNCLIENPTFDSQTKETMTLQQKQFGSTCVLSEKFSKAASSVGITDAVMSWVRFKQMDDLNKKCSKTKTSKLKGIPKLEDANDAGTKNSQQCTLILTEGDSAKTLAVSGLSVVGRDKYGVFPLRGKLLNVREGNMKQIADNAEVNAMIKILGLQYKKKYETEDDFKTLRYGKLMVMADQDQDGSHIKGLVINFIHHFWPSLIQRNFVEEFITPIVKATKGKEEVSFYSLPEYSEWRMNTDNWKSYKIKYYKGLGTSTSKEAKEYFLDMVRHRIRFKYNGADDDNAVDMAFSKKKIEERKDWLSKWMREKKDRKQQGLAEEYLYNKDTRFVTFKDFVNRELVLFSNLDNERSIPCLVDGFKPGQRKVLFACFKRADKREVKVAQLAGAVAEISAYHHGEQSLMGTIVNLAQDYVGSNNINLLLPIGQFGTRLQGGKDSASARYIFTQLSPVTRTLFPAHDDNVLRFLYEENQRIEPEWYCPIIPMVLVNGAQGIGTGWSTNIPNYNPRELVKNIKRLIAGEPQKALAPWYKNFRGKIIQIDPSRFACYGEVAVLDDNTIEITELPIKQWTQDYKEKVLEGLMESSDKKSPVIVDYKEYHTDTTVKFVVKLSPGKLRELERGQDLHQVFKLQAVINTTCMVLFDAAGCLRTYTSPEAITQEFYDSRQEKYVQRKEYLLGVLQAQSKRLTNQARFILAKINNEIVLENKKKAAIVDVLIKMKFDADPVKKWKEEQKLKELRESGEIELDEDDLAAVAVEEDEAISSAAKAVETKLSDYDYLVGMALIKLSEEEKNKLIKESEEKMAEVRVIEKKTWQDLWHEDLDNFVSELDKQEAREKADQDASIKNAAKKLAADAKTGRGPKKNVCTEVLPSKDGQRIEPMLDAATKAKYEKMSQPKKERVKKEPKEPKEPKKVKKEGQDIKKFMSPAAPKTAKKEKSDGFNSDMSEESDVEFDEGIDFDSDDDGVEREDVVSKPKPRTGKGAAKAEVIDLSDDDEVPAKKPAPAKKAAPKKKKSEFSDLSGGDSDEEAEKKPSTSKKPSPKKAAPKTAEPKSKAVTDFFGASKKNGKKAAGSDDEDDESFVVAPREKSGRARKAPPTYDVDSGSDSDQPKKKRGRVVDSDSD
# Variants of: B1
# Experiment: co-immunoprecipitation (anti-FLAG magnetic agarose beads) with anti-RFP immunoblot, band quantification
# Details: with TOP-2::3xFLAG [C. elegans]; parent: 1; read off a plot
row,Variant,ratio to parent
1,chain 1 MSNSDDEIQEIEAKRQKMSQEDSEVEIEILDEPEQGKLKNSSMSDEQKLHEFAIITATDEAFAQSILQDVDWDLKKALDVFYGSEAFAEARSAAVMGASSSMASSGAAVMTAEDLKRFEVSVMSWNIDGLDGRSLLTRMKAVAHIVKNVNPDILFLQEVVDRDLAPIDKLQSLYKIYYSNKGCQYYTAILVSKMFDVEKHDVIHFQNSGMYRTLQILEGSIGGLKVFLLNTHLESTREHRPQRCAQFGFCMDKVREIIAQNPGALVFFGGDLNLRDEEVSRVPDGVKDAWEAAGSDNKTKFTWDTFKNDNKQGFHGAKMRFDRLYWSGPLDKVKFTLEGRQRIRSCLCFPSDHWAINATFFA [chain 1 G117R],0.42

# Same assay, conditions: with wrmScarlet::TDPT-1 [C. elegans]; parent: 1; read off a plot
row,Variant,ratio to parent
1,chain 2 R828C,1
